Measured values published in the DeepSol protein solubility set.

assay: soluble on expression in E. coli; label from the status in PepcDB or PDB records

Sequence	soluble on expression in E. coli
MGSDKIHHHHHHMDEETRRAVATADEALPTSDALPDAIDTGRVVFGFDGYLDRVREVVADRIDPESHERLATLESFGDRIDRSVAADSSLSFEWLQQGSRTGGHTSHLARAFGGWSFDPVMVGMYGDPVHDAFETEFGEYELHSLGEPGVTDAVEFDDGKLMLTEIGDTMSLDWAELDTAFGHDRLAEKLDGASLLGTGYWSETPDLPTVFDGLRTLWDGIDDPPETVLVDPGDVRKLDADRLRAGREAIGRLDEVTDVVVTSNRAETGVLADAYAGDAERSFADDAEAVFEALEPTWFVGHGVEQSVVVTAAGTDSVAVPSVSDPELTTSSGDHFNAGLGLARIADLSPAAAVVVGNAVAGYFVRTADQPSLADVRAFVDEYLEKF	not soluble
MAGKITVVGLGAGDMDQLTIGIHKLLTKADTLYVRTKDHPLIEELEKETKNIRFFDDIYEKHDQFEAVYEEIADILFEAARREDVVYAVPGHPFVAEKTVQLLTERQEKENVQVKVAGGQSFLDATFNVLQIDPIEGFQFVDAGTLSADELELRHHLIICQVYDQMTASEVKLTLMEKLPDDYEVVIVTAAGSRGEEIRTVPLFELDRNVALNNLTSVYIPPIKEEKLLYHEFSTFRSIIRELRGPNGCPWDKKQTHQSLKQYMIEECYELLEAIDEEDTDHMIEELGDVLLQVLLHAQIGEDEGYFTIDDVIKGISEKMVRRHPHVFKDVKVQDENDVLANWEDIKKAEKNTSESSLLDSVPKTLPALSKAAKLQKKAAKVGFDWEDVSDIWEKVSEEMKEFSSEVSEAPHEHNLKAEFGDILFALVNVARFYKIEPEEALTMTNDKFRRRFSYIEETAKEEGVELADMSLEDMDKLWNEAKETERRS	soluble
MGSDKIHHHHHHVAKVPQRKLLLSEIQLGMRVKLPLSWTNHPFLFNRVDISSAAQIEMIRGLGVPYVLLLSELNPASEVVEEDENVEDEIAAEPERDLKADTRKAIRLSQKRFLENVNNCRNVFGKIVSDPEGAYRLSAALVEDLLSHLQEVEKPFLTLVGMDDSDVSVTQHGVSVAVLAMMMGHALDLSPRELRDIALGSLLHDIGKLKVPDVIRRKRGALTPHEANYLQMHPNFAYDMLNRSGLFPKEVLHIVLHHHEFIDGSGFPDGLTDHKIPITTQIVSLANDYDQQLSGQQISSPQVALGYLFKNRATKHAESLIAILVKILGIYPPGTIVRLSDDSVAKVMMTTKEVSQPQVWACKEDGSEASLRFLSDEGVTVQKAIKAEELSEGAIRTLQVDKGVSFYFSSLQT	not soluble
MWYRALFPGATWRIPAKEGKSIYLTFDDGPIPEITPWVLDTLDELGVKATFFCVADNVRRYPDLFAEIQRRGHQVGNHTFHHLQGLKVRTRTYLKDVEEADRLINSRFFRPPHGHLRFMQTLLLSNHYDIIMWDVITRDYNARLSPDTVFGSVVRYARNGSIITFHDSLKAAPNMQQAMPRAVRWLLDEGYTFKCLGDPAD	not soluble
MGSDKIHHHHHHMTIELTPPPKKNPQKRSTSATRPPEARSRAALGLSAAAAEGRFALQVCAECQAVQYPPRDACAACIGTDLVWQDISPDGHLLAETTIQTSTKLFFRERAPWRMGSVKLTAGPVVLCHVHGDCTRGGPVKILNRLDKSGQAVLIAIPPERTEHMDDDPQLRAMSANPKHRRILITDAWNPNTPALAKALLEAGAATIFVGEAESWRPHPNRDTLAGMENVDILPLDVTDTASVQTLAGEIGGKTDILINNARFMRPGGVLARGDTGFARDEMEVNYLGLMRLAQAFGPGMCARMADGVNSAAAWVNILSAHALSNAPDYGCFSASNAAAYSLSQSLRGEFRSAGLRVMNVFVGPTDDDWYAPLPPPKVLPTGLARSVVDGLRDGLEDVWCGDIAKDMRDRWRRDAKVLEREMTFGSEGA	not soluble
MSLKLWENGTFYQMTAEGEQVSAVLTKNGQIHAVGEVADLKKQYATEIDETIDLEGKVVFPGFVDAHIHLLWYGQALERLNLNQTTTKKEALALILERTKQLASEEWLFVEGYDENKWSDEQTLISLVDLDGVSTTNPILVRRIDYHSVSINSALKAHIENFSENGFDGGGEIVRDKAGNFTGILRDNATTLAIDAFPAATPAELNAWLKIAITDLWSKGITGAHSEDLHYFTGFESTFAAFRNTVGANRLPFRAHLLIHHAELANFSTSKESFMSGDKFLELGAMKIFYDGTVGSRTALMSAGYADNPNEKGLQIHSDEAFEDLVQSARKAGLPVAIHILGDQAFANVIRTLRANPPKEGQYDRLIHTPWLTKELIAEAEGLPILFDVQPQFMASDLPWAIDVLGENHPPLAFAWNSLLRAGFPLAGGSDAPIEVPNPFWGIHAAVTRTANADLNGVKYWPEESLTVYEAIELYTKGAAFASYKTTSRGQIAPGFVADFTILAEDPFLIKPANLRHLEVMMTVVNEQVVYKKEGHHHHHH	soluble
MGVTLAKGGNVSLSKEAPGLTAVTVGLGWDVRTTTGAAYDLDASALLCSGSGRVVSDLHFVFYNNLTSPDGSVQHTGDNLTGEGEGDDESINVELAQVPAEVTKIVFPVSIHEAQSRGQSFGQVSNAFIRVVNRANNVELARYDLSEDASTETAMVFGELYRHGGEWKFRAVGQGYASGLAGIASDYGVNV	not soluble
MQLDEDDMIINIFWADDRSISDYNLFGDVICFEQLIRPMHMIDPLLICRGQSSQANSCVW	not soluble
MSLFFIYDFAMIMQFNSRYSDLNAKLYHQQAPVPLKGAKAGHFNEAIADELQWTSQEKQSWVDICSGQKTFDAFKPLAMVYAGHQFGQWAGQLGDGRGLLIGQVLHRSGQTIDLHLKGAGLTPYSRMGDGRAVLRSVIREYLAGHALNSLRVASSNAIGFTTSEQGVQRETLEQGAMLLRTSDCHIRLGHFEWINQYAPELLAEFTQKCIEWHYPEALQAEHPILAFAEGVIKNTAKMIADWQLVGFAHGVMNTDNLNITGSTLDFGPYGFMERFRPNWINNHSDHQGRYAYQNQPSIAHWNLWIWLNNLIPLSKPEDKETFKKQLADCLEHFEPTFLTAYTEGLCKKLGLPDFHKDSFDCGMAFLKVLQSEQLDYTQSFLRLQNHDYKALRDDCLDTRQFDDFLNLYHQIREHQDITALDQTMCDVNPVYILRNHMAQQAIEQAERGDFSEVERLFTLLAKPFTRQPALEKEQDLAPLPSDVPEIMVSCSSEGHHHHHH	not soluble
MGSDKIHHHHHHMDRRDFFKTVAITGAAMTIQRSEAMEILTQTINKANGDKPDLVAVMGGEPEAMFRRAISELGGMKQFIKPGQKVVVKPNIGWDKVPELAGNTNPKLITEIIKQCFATGAKEVTVFDHTCDDWQKCYKNSGIEAAAKEAGAKVMPAHLESYYKPVDLPKGQKMKKAKIHEAILNCDVWINVPILKNHGGANLTISMKNHMGIVWDRGFFHQNDLQQCIADICTLEKKAVLNVVDAYRIMKTNGPRGRSASDVVLAKGLFISPDIVAVDTAAAKFFNQIREMPLDTVGHLAKGEALKVGTMDIDKLNVKRIKM	not soluble
MSLKNLFNKYNDMKGVSSVYISKAMMELNPNLFMKDLYIGKVAEHLNSVQVLSTHDNKVREEMAKDIRSLVQSSKYELLMKQKSTVSGSEVYVNRKGSKVKELIMVMNGASSLKFVYMEGDMTTDDIKKLMLYQSTSQNFIISGDLFYANNKPVTYFKKGNSDNQKDMAELSGTYNLNSIDTNYKEELSTLNDKLKRIDQGLKNMNIKEGHHHHHH	soluble
SMDEVVRIHSSSGTTGKPTVVGYTKHDMEVWGEVMARTFTLAGVTAKDVVHNAYGYGLFTGGLGFHDGAQRVGATIIPASGGFTNRQIMLLRDFKATALTCTPSFAMHLAEVAKSEGFDPRKDFHLKAGIFGAEPSSEGLQRAVADTWGIAYHEIYGLSELIGPGVSCSCEQ	not soluble
MSLKASELKKGFAIISNGKTLLIKDIEVTTPGGRGGSKIYKLRCTDLNTGARVDERYKSDDVLDTVEMNKRPISFSYIDGDEYVFMNNDDYTPYNFKKDEIEDELLFITEEIQGMSVVLVDGEAVAIELPSSVEMVIEETDPSIKGASASSRTKPARMPTGLVVQVPEYIATGDRIVINTAERKFMNRAEGHHHHHH	soluble
MAHHHHHHSLEYNLTTTEVAMENVSASWDEGIGEFFEKAKLEVNGGNISNEDPSAFFSNFSLHVAPVLRNINFKIEKGQLLAIAGSTGAGKTSLLMMIMGELEPSAGKIKHSGRISFSPQVSWIMPGTIKENIVFGVSYDQYRYLSVIKACQLEEDISKFPEKDNTVLGEGGITLSGGQRARISLARAVYKDADLYLLDSPFSYLDLFTEKEIFESCVCKLMANKTRILVTSKVEQLKKADKVLILHEGSCYFYGTFSELEDQRPEFSSHLIGFDHFNAERRNSIITETLRRCSEG	soluble
MSLKFAAGFVLIDAPHSALNMLGIDESLPDRNVTRVKTLRRGGNRYVYISPQAWRYWWRITLKEYFNWELSPLFREEKQVFTAANPIKYPDDDVFGYMRAYKKNKVNVTVTRISPLKNTPLVSVLPDRSSLTIDEGYASRHEGDPVPYSQEFYSTVLKGAFSLDLDLVGRFTTKNKAGYKNLLTRDDIPKKGKGEDIVKEIKELEELARNVGVEIKDGEWIMPKEIRKKRSIETIKALRYLTGGAKQTQYHTDVTPKLFLGIIVNGGINPFISDIVREEKGEIILDAEALATRLEDFSDIIDSKLFLGYDMGFVRSLGLEIEAIKSTAGIEVVEGKVGEIIEKFAEEAGKYYIEGHHHHHH	soluble
MKLLLHICCGPCAVYPVNVLREEGIYFEGLFYNPNIHPYDEFIRRKENVKKLSEIKNVPVKYMDDFSQEIWEKLGEDNEKRCNMCYALRIDKVAGYAKENGFDAFTTTLLVSPYQKHELIVELSKRAGEKYGIEFFYKDFRPGFRQGQQEAKELGLYRQKYCGCIISYREAEKLKSERKSK	soluble
MHRELLDALSVITEEEQRILDEQRGIDPQLYTEKKELIVDSEKLLKKGKLIQVRPHTRFVNFPKHKHNYVEVIYMCQGTTTHILNGSKVILEAGDLLFLNQNAEQEILPAGEQDIAVNFIVLPEFFDTAFSMMDMEEENALKEFLVGALCGKNDNTSYLYFHVAEILPIQNLVENMVWTIFYDQPNKRRCNQITMGLLLLQLLNHVDRMETGTAAFDRELTG	not soluble
LEYSDSIDLLNMDLYDLMKLADRLTHYDAGETVSYAISYNINYTNYCTASCPICAFYVPYKNKRFGKGYELTKEQVRKEALIAKQKGATEIHIVGGFDPDLSIEYYEDIFRTIRGIMPNVAIKAFTIPEIDFIARTTGNSIKETVLRFMDAGMNAHTGGGAEIFDQEIRKYITTPEKVSGEKWLEDAKIIHSLGLKGNSTMTYGHIEGWEHIIDHMIRLRDNQIEVPGFLSFIPLKFSPENTALLRSGRVHGPAPVDKDLKVIALARIIMGRAIRNISVYWVAIGKLTAQIAINGGGNDLVGTAYSEKVFGATDRKTSTTTEELNNMIRQAGKIPGVR	not soluble
MGSDKIHHHHHHMLAQVPNTISLQQELTPLLQHEWLPHINQRDYHSGSQGGWDVLALRCAEEYHAAHPILQAFSISAANEWDNLPALESSPTLLDFIQSLACPVKSVRFMRLHAGAEIKPHRDQGLSLEQGEARLHLPLQTHDQLYFYVNDQRVPMQAGELWYINADQSHWVANKGSSARINLVIDCKVNSWLRELIHGAKIKA	not soluble
MNIRDYIRENEARFLEDLFALIRIPSVSAKSEHKPDMQRCAEHWRDHLLQVGAQKAEVFQTPGNPVVYAERIMDPKAKTILVYAHYDVMPPEPLELWKSEPFEPVIRDGHIWARGADDDKGQGMIQVKGFETALALGLVQCNVKFLFEGEEEIGSTNLEAFCRAHKEMLSADVIIVSDTSMVSAETPSLTTGLRGLAYWEMEVTGPNRDLHSGHFGGAVANPINELCKLIAGIVDENGRITIPHFYDDVVPLSDEERQMIAQVPFSEEKYCQALDIDTVFGEAGYSTLERNSCRPSFDVCGIWGGYTGEGAKTVLPSKAYAKVSSRLVANQDHEKISQMFIDYIRSVAPKHIKVKVTPLHGGEAYLCPIDLPAYKAAEEACTIAFGKRPLAVRRGGSIPIIATFEKVLGLKTVLMGFGLESNAIHSPNENMPLDIFRKGIESVAEFYRIYK	not soluble
